From patent publication US20230257746

Target: T1, ZNF410 (Homo sapiens) (UniProt Q86VK4)
T1 sequence: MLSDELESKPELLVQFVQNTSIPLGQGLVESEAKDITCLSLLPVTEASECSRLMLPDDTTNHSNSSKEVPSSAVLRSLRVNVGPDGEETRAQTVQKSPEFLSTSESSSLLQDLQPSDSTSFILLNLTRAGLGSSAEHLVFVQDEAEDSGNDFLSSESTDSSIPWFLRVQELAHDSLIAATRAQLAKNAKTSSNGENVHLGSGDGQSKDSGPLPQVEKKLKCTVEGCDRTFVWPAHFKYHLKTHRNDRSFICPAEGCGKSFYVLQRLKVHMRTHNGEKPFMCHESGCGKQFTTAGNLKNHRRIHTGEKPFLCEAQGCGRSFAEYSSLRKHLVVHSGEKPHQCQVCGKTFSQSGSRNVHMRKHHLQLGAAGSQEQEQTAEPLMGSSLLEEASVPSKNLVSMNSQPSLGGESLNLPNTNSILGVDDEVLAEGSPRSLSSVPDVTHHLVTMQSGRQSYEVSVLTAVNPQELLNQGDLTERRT
Details: CUT&RUN with anti-HA in HUDEP-2 cells

Q: For NBPF19 intron site, which binding signal (fold enrichment over IgG) is on record?
A: 11

Q: With CHD4 -6 kb enhancer (11 ZNF410 motifs) as the substance, how does the binding signal (fold enrichment over IgG) read?
A: 78

Q: How did the binding signal (fold enrichment over IgG) turn out when CHD4 promoter (16 ZNF410 motifs) was run?
A: 48
